± gives the uncertainty stated by the source.

This data set in a line: amyloid nucleation score (Sup35N fusion, yeast selection) (log enrichment); library NNK3; higher = more nucleation; inactive = no reads after selection. The method, boiled down:
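Yeast lacking psi expressed peptides of 20 random codons fused to Sup35N, received 100 μM copper sulfate for 24 hours, and were then grown for 7 days at 30°C on medium lacking adenine and uracil. Illumina sequencing of input and output plasmid inserts provided the reads. Nucleation scores are DiMSum log enrichments of output over input, centred on the mode of non-aggregating sequences. Any sequence with under 100 input reads was excluded.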
Take LCSNLSGDVYELVSHFPGGD: the amyloid nucleation score entry was “inactive”. The entry for LCTLYWNGARWSRCFATTFY is “inactive”. Consider LCVLPMSSTRGPHNICSTLL, for which the amyloid nucleation score entry is “inactive”.

The substance LCVNCLPRSLIFDSSIWRVD returned an amyloid nucleation score of 0.296 ± 0.87.

As to LCYTPRGNKFTHLKW, the amyloid nucleation score is 0.595 ± 0.18. The same measure for LDCHVS: “inactive”; for LDEIWIKDFSMSSHVAGRHS: “inactive”; for LDFVYCNAVFWTLNGFLNCA: 1.78 ± 0.078. The entry for LDHAKRHIIVPEYLSLAKKQ is “inactive”; for LDHIGKFLFRVTGCCITFTR it is “inactive”; for LDIDSFYCVLR it is 1.23 ± 0.12. Regarding LDKCNHS, the amyloid nucleation score result was “inactive”. The same measure for LDQPGPDNLNVVNKLNFDWH: 0.419 ± 0.26; for LDRCDHSIVCR: “inactive”. The same measure for LDTYCIVDRDNRCGRNVVLY: “inactive”; for LDVKQSSRSLREAVDVFNNH: “inactive”; for LEERLNFGKYAVGDGYTLV: “inactive”. On to LEGLSKNQWGCLDATCSYTE, for which the amyloid nucleation score entry is “inactive”. The entry for LEITALLTVRMHVDS is “inactive”; for LEMGSGSHFSGDSWAHPLRG it is “inactive”. With LFATAEPMLRWVRSRLV, the amyloid nucleation score result was “inactive”. The entry for LFAYRWGIYFRLKVEYFVDS is “inactive”; for LFCVLP it is “inactive”. The same measure for LFDILGMYEDMASVGFCIPQ: “inactive”; for LFDLVYRWTWNED: -0.592 ± 0.76. The same measure for LFDVKDRSTMVVVIPCFHGS: 2.23 ± 0.065. Take LFGDMIMVSSCWSKRNCSVA: the amyloid nucleation score result is “inactive”. The figure for LFIWCTFFVIMFCSTTRVSI is 1.17 ± 0.16. As to LFKYLPCARRVQGRES, the amyloid nucleation score result was “inactive”. Turning to LFMYMMPQGPSVTANMELVI, the amyloid nucleation score was -0.742 ± 1.1. For the substance LFNGFVDTMESIVSFDNTSY, the amyloid nucleation score result is “inactive”. The same measure for LFNTRERRYMEWPTAWRLRR: “inactive”; for LFQIM: “inactive”; for LFRLYRLL: “inactive”. The entry for LFRPSL is “inactive”; for LFSMSVSASHHWLERSFLTR it is “inactive”; for LFSTMFDTIENYNIGCTCGF it is 2.01 ± 0.053.

For the substance LFSTNNYNQLWGMVGFLGFG, the amyloid nucleation score entry was “inactive”. The entry for LFTLKLTVSKMKLWLLYGCS is “inactive”.

Consider LFVNNVVFHFIFLCPVHRTV, for which the amyloid nucleation score stood at 2.75 ± 0.06. The same measure for LFVYVIQYVISVI: 0.74 ± 0.14; for LFWSWYGGWKLNWGI: 0.661 ± 0.14. Regarding LFYFKRFWYVLLLANLLDM, the amyloid nucleation score result was “inactive”. Consider LGCREDFCERIGCVLRVMLE, for which the amyloid nucleation score result was “inactive”. The same measure for LGGLYLLIFLRSGPRRWSGT: “inactive”; for LGICGVRRSLMKRR: “inactive”.

Turning to LGLRHDICITDRINSGLRGS, the amyloid nucleation score result was “inactive”. In turn, LGQFDTDTLAHDSMGAGNAV registered an amyloid nucleation score of 1.24 ± 0.16.

Consider LGRKNGGAVNVRRPHFDWDG, for which the amyloid nucleation score entry is “inactive”. The same measure for LGSFNDVWIVCADWFAFLKV: “inactive”. In the case of LGVFSRRACYLFRICLTELI, the amyloid nucleation score entry was “inactive”.

LGVYYVNNRYFADFKGVEHG came in with an amyloid nucleation score of 0.154 ± 0.67. With LGWSMFLFDFSFKVKSH, the amyloid nucleation score entry was “inactive”.

Consider LGYDRQGLLTEVYRFSYIIL, for which the amyloid nucleation score entry was “inactive”. On to LHAWAVVLGFLETP, for which the amyloid nucleation score result was “inactive”.

Turning to LHCFIAQFMQRYFREWSGNG, the amyloid nucleation score result is “inactive”. As to LHFGDMLLVCNTFFELRVLH, the amyloid nucleation score turned out to be 1.73 ± 0.08. The same measure for LHGNLRNLI: “inactive”. On to LHITYGSFCTLVFLIIVRWF, for which the amyloid nucleation score result was “inactive”. The same measure for LIALNYVWYTAQ: “inactive”; for LIHVGRFTVRTKL: “inactive”. Turning to LIKSSRLCLPKYTGVCNSHK, the amyloid nucleation score was -0.189 ± 0.88. The same measure for LILNYGGLPWFIPIP: “inactive”.

With LINEECFFACVEVIGNVFRV, the amyloid nucleation score is -0.888 ± 1.1. As for LIPFCAVHPLWEHHLSKSFF, the amyloid nucleation score result was “inactive”. For LIQDFTSSGRI, the amyloid nucleation score result was “inactive”. The entry for LIQVIGLSIALRTMSCLRGS is “inactive”; for LIRPDCEDTRFCIRSWDCQG it is “inactive”; for LIRYPGRSEDTVRFWRERMG it is “inactive”. Consider LIVSIYMCGCRKRITFLRVS, for which the amyloid nucleation score entry is “inactive”.

As to LKARYYNYIASERSGCEFHK, the amyloid nucleation score entry was “inactive”. The entry for LKDLGYELIILAFKRLFLCC is “inactive”; for LKIAQHRGSVFNGDKK it is “inactive”; for LKIGTFCSNPGSLIVVYLTV it is “inactive”.

Substance LKLFLRVYCIDI displayed an amyloid nucleation score of 0.535 ± 0.23. With LKPLGDSADGRWQLLWNSAD, the amyloid nucleation score entry was “inactive”. The same measure for LKSMLLFSMRSRSVKCCGGE: “inactive”; for LKVCNISDWFNIACSVMSFH: 1.93 ± 0.086; for LKVTSFKALHCLTAYHSSPL: “inactive”. Turning to LKVVVDQKVG, the amyloid nucleation score came to 1.27 ± 0.15.

For the substance LKWAV, the amyloid nucleation score entry was “inactive”. LLAGQAIEIDVCAQGLKLKF: the amyloid nucleation score is -0.968 ± 1.8.

On to LLCNESILKPVTPKWRDCKL, for which the amyloid nucleation score result was “inactive”.

For the substance LLELRVVRLRTNVAVVHIYV, the amyloid nucleation score entry is “inactive”. The entry for LLEQMQGFRLIQSGVHNTLM is “inactive”; for LLFDDKCYGLVVDNYRYANI it is “inactive”. Consider LLFSAKGFECLMFVNRLYLA, for which the amyloid nucleation score entry is “inactive”. As to LLFSLHCCCKSTYFFKSFLN, the amyloid nucleation score entry is “inactive”.

Consider LLFTCQSDKDYVRFFVQFNW, for which the amyloid nucleation score entry is “inactive”. For the substance LLGLFRLFKPQAFKGSPAAS, the amyloid nucleation score result is “inactive”. The same measure for LLIMKGCAC: “inactive”.

Take LLIVFLIFRMLRLAGASI: the amyloid nucleation score entry is “inactive”. In the case of LLLASVRVRFRHWPTYLRYF, the amyloid nucleation score entry is “inactive”. On to LLLCYYNGIWRFDGRLS, for which the amyloid nucleation score entry was “inactive”. The same measure for LLLFRKRLMLPRVLQQVPRH: “inactive”; for LLLIFS: “inactive”. As to LLLSSILRYS, the amyloid nucleation score entry was “inactive”. As for LLLSTRID, the amyloid nucleation score entry is “inactive”. As to LLMFHCQMMSLGGYTSVSAR, the amyloid nucleation score entry was “inactive”. The figure for LLMYARYSG is 1.52 ± 0.11; for LLQFLMFARNSMIKVVRSMV it is “inactive”; for LLRVNSEAGESCQVSFTFNM it is 1.73 ± 0.093.

Take LLSETAHLFVFT: the amyloid nucleation score result is “inactive”.

In the case of LLSPEEGGLKSECRRWSGAL, the amyloid nucleation score result was “inactive”.

For the substance LLTGFLSKVSGQS, the amyloid nucleation score result was “inactive”. In the case of LLTIKN, the amyloid nucleation score result is “inactive”. For the substance LLVCVFFGVLKIYFIVAIRW, the amyloid nucleation score result was “inactive”. The entry for LLVESMDGGRPILQDGLFKY is “inactive”; for LLVMGFCRVLCDLGGRYVRV it is “inactive”. The entry for LLVPILCPFKV is “inactive”. The same measure for LLVSIFLGYPQ: “inactive”. Turning to LLVTDYGFELTVQLWNKRSL, the amyloid nucleation score was -0.155 ± 0.33. As for LLWKKRVEEDSWLHTGSERM, the amyloid nucleation score was 0.904 ± 0.15.

For the substance LLYIRC, the amyloid nucleation score stood at 0.705 ± 0.23. The entry for LMDLNADKWHNAFTYSSVVE is “inactive”; for LMFEL it is “inactive”; for LMFSMRTDRSMCGKDPLKRA it is “inactive”. The entry for LMFYGFYLVLRGS is “inactive”; for LMGGQMRDIVFHMQGF it is 1.45 ± 0.1; for LMGLNYAWDAFWLIFPGLCF it is “inactive”.

LMIVLKLP: the amyloid nucleation score result was “inactive”. The same measure for LMLEASCCSHAEFPHGVKMR: “inactive”; for LMLLIFAWFQILTVRIRLFR: “inactive”. In the case of LMPWTMSIWGL, the amyloid nucleation score result was “inactive”. The same measure for LMSAFSIRRGYCCVENSASR: “inactive”; for LNACSGFTFLFNRVVIKVIL: -0.42 ± 0.8.

For LNDGWVLIYYSGALSDREI, the amyloid nucleation score result is “inactive”. LNEVTVLTIMMCLRS came in with an amyloid nucleation score of 0.971 ± 0.16.

Regarding LNFEATSYLTMRYDLSYVRF, the amyloid nucleation score entry was “inactive”. With LNFMWRGMY, the amyloid nucleation score was -0.135 ± 0.62. Consider LNHYECSW, for which the amyloid nucleation score result was “inactive”.

The record behind these values is the supplement of paper PMC12042874.
